Results from patent US20230348572A1 (ROSALIND FRANKLIN INSTITUTE, published 2023).
Residue numbers refer to the chain shown, from its start. Read-outs that look alike come from different tables or passages of the source.

Assays:
[1] = molecular target: T1, SARS-CoV-2 Spike receptor binding domain (RBD, amino acids 330-532) (SARS-CoV-2, UniProt P0DTC2 330-532); experiment: phage ELISA on biotinylated RBD captured on neutravidin, anti-M13-HRP
T1 construct: range 330-532

RBD-Fc [2] = molecular target: T2, RBD-Fc (SARS-CoV-2; human, UniProt P0DTC2 330-532)
RBD-Fc [3] = molecular target: T2, RBD-Fc; remark: listed apart in the source
RBD-Fc [4] = molecular target: T2, RBD-Fc; experiment: SPR single-cycle kinetics, RBD-Fc on Protein A chip, nanobody as analyte
[5] = molecular target: T1, SARS-CoV-2 Spike receptor binding …; experiment: ITC, nanobody titrated into RBD, 25 °C, 1:1 stoichiometry
[6] = molecular target: T1, SARS-CoV-2 Spike receptor binding …
[7] = molecular target: T1, SARS-CoV-2 Spike receptor binding …; experiment: ITC, RBD in the cell, H11-H4 in the syringe
RBD-Fc [8] = molecular target: T2, RBD-Fc; remark: listed apart in the source
[9] = molecular target: T1, SARS-CoV-2 Spike receptor binding …; remark: listed apart in the source
RBD-Fc [10] = molecular target: T2, RBD-Fc; experiment: SPR, single-cycle kinetics, RBD-Fc immobilized, H11-D4 as analyte, run i)
RBD-Fc [11] = molecular target: T2, RBD-Fc; experiment: SPR, single-cycle kinetics, RBD-Fc immobilized, H11-D4 as analyte, run ii)

B1: NbRBD_C10 (VHH)
VHH: QVQLVESGGGLVQPGGSLRLSCAASGFAFSSYDMSWVRQAPGKGLEWVSAIDSGGGVTYYADSMKGRFTISRDNAKNTVYLQMNSLKPEDTAVYYCNAVDGLGYLEYDYWGQGTQVTVSS
With B1 the “ELISA A405” value [1] was > 1.5.

B2: NbRBD_B4 (VHH)
VHH: QVQLVESGGGLVQPGGSLRLSCAASGFTFSSYWMYWVRQAPGKGLEWVSVINTGGDTTYYADSVKGRFTISRDNDENTLSLQMNSLKPEDTALYYCARTGVVRGPGDLDAWGQGTQVTVSS
For B2, the “ELISA A405” value [1] was > 1.5.

B3: NbRBD_F5 (VHH)
VHH: QVQLVESGGGLVQAGGSLRLSCAASGTIFRINAMAWYRQAPGKQRELVAIISNGDSGDSTNYADSVKGRFTISRDSAKNTVYLQMNSLKPEDTAVYYCNVEASWPHKYWGQGTQVTVSS
B3 was tested, and the “ELISA A405” value [1] was > 1.5.

B4: NbRBD_A7 (VHH)
VHH: QVQLVESGGGLVQPGGSLRLSCAASGFTFDDYAMSWVRQAPGKGLEWVSAISWNGGGTYYAESMKGRFTISRDNAKNTLYLQMNSLKSEDTAVYYCAKDFHRYGSSTLEYDYWGQGTQVTVSS
With B4 the “ELISA A405” value [1] was > 1.5.

B5: NbRBD_G11 (VHH)
VHH: QVHLVESGGGLVQPGGSLRLSCAASGFTFDDYGMTWVRQAPGKGLEWVSAVNSGGGTSYADSVKGRFTISRDNAKNTLYLQMNSLKPEDTAVYYCAKRDGSWWGYTTDYWGKGTQVTVSS
With B5 the “ELISA A405” value [1] was > 1.5.

B6: NbRBD_B11 (VHH)
VHH: QVQLVESGGGLVQPGGSLRLSCAASGFTFDDYAMSWVRQAPGKGLEWVSNIYSYISTTHYADSVKGRFTISTDNAKNTLYLQMNSLKPEDTAVYYCAARRLDTTDYKYWGQGTQVTVSS
B6 was tested, and the “ELISA A405” value [1] was > 1.5.

B7: NbRBD_G9 (VHH)
VHH: QVQLVESGGGLVQPGGSLRLSCAASGFTFYDYHMSWVRQAPGKGLEWVSGIDTGGGRTYAADSVKGRFTISRDNAKNTLYLQMNSLKSEDTALYYCVRDGDARGPDYDYWGQGTMVTVSS
B7 was tested, and the “ELISA A405” value [1] was > 1.5.

B8: NbRBD_F9 (VHH)
VHH: QVQLVESGGGLVQPGGSLRVSCAASGFTFSSYFMSWVRQAPGKQRELVATIGDRGNTNYADSVKGRFTISRDNAKNTVYLQMNSLKPEDTAVYYCYSRNRILQHYWGQGTQVTVSS
In the case of B8, the “ELISA A405” value [1] is reported as > 1.5.

B9: NbRBD_G7 (VHH)
VHH: QVQLVESGGGLVQPGGSLRLSCATSGFTFDTYDMSWVRQAPGNGPEWVSAEDSTGNKFYADSVKGRFAISRDNARNTLYLQMNSLTSEDTAVYYCAKGLRSWGAWGQGTQVTVSS
B9 was tested, and the “ELISA A405” value [1] was > 1.5.

B10: NbRBD_H11 (VHH)
VHH: QVQLVESGGGLMQAGGSLRLSCAVSGRTFSTAAMGWFRQAPGKEREFVAAIRWSGGSAYYADSVKGRFTISRDKAKNTVYLQMNSLKYEDTAVYYCAQTRVTRSLLSDYATWPYDYWGQGTQVTVSS
notes: also called nanobody H11; Nb H11
In the case of B10, the “ELISA A405” value [1] is reported as > 1.5, the Kd (RBD-Fc [2]) is reported as < 1000 nM and the Kd (RBD-Fc [3]) is reported as 378 nM.

B11: NbRBD_H11-H4 (VHH)
VHH: B10 VHH with R100H, V101Y, T102V, R103S, S104Y
notes: also called nanobody H11-H4
B11 showed a Kd (RBD-Fc [4]) of ~5 nM, a Kd [5] of 12 nM and a Kd [6] of 11.8 nM. It also gave a ΔH [6] of -69 kJmol-1, a ΔS [6] of -79 Jmol-1K-1 and a ΔH [7] of -67 kJmol-1. The ΔS [7] was -80 Jmol-1K-1 and the Kd (RBD-Fc [8]) was 5.5 nM.

B12: NbRBD_H11-D4 (VHH)
VHH: B10 VHH with Q98R, R100E, V101N, T102V
notes: also called nanobody H11-D4
For B12, the Kd [9] was 39.2 nM, the ΔH [9] was -76.1 kJmol-1 and the ΔS [9] was -114 Jmol-1K-1. The Kd (RBD-Fc [4]) was ~10 nM, the Kd (RBD-Fc [10]) was 9 nM and the Kd [5] was 39 nM. For the same binder, the Kd (RBD-Fc [11]) was 10 nM.

B13: NbRBD_D1 (VHH)
VHH: QVQLVESGGGLVQPGGSLRLSCAASGFTFSSYGMSWVRQAPGKGLEWVSGINSGGGSTSYADSVKGRFTISRDNAKNTLYLQMNSLKSEDTAVYYCAKDASEDAGRLYWTDYWGQGTQVTVSS
B13 was tested, and the “ELISA A405” value [1] was > 1.5.

B14: NbRDB_E11 (VHH)
VHH: QVQLVESGGGLVQPGGSLRLSCAASGFTFSNYAMTWVRQAPGKGLEWISDIGSDGRHPAYADSVKGRYTISRDNAKNTLYLQMNSLKPEDTAMYYCLPGWSTVGTFLDAWGQGTQVTVSS
For B14, the “ELISA A405” value [1] was > 1.5.

B15: NbRBD_C7 (VHH)
VHH: QVQLVESGGGLVQPGGSLRLSCAASGFTFSSYDMSWVRQAPGKGLEWVSGISGSDSTTVYSDSVKDRFTISRDNAKNTLYLQMNKLKPEDTALYYCARPLGQYTSWGQGTQVTVSS
B15 was tested, and the “ELISA A405” value [1] was > 1.5.
